Measurements: patent publication US20090136506A1, “Conserved Membrane Activator of Calcineurin (CMAC), a Novel Therapeutic Protein and Target” (priority 2005, published 2009)

B1: cMAC BL2: shDNA construct in pLKO.1 lentiviral vector, target sequence gcctttgttagatctatca (SEQ ID NO: 105) (nucleic acid)
sense: CCGGGCCTTTGTTAGATCTATCATTCAAGAGATGATAGATCTAACAAAGGCTTTTT
antisense: AATTAAAAAGCCTTTGTTAGATCTATCATCTCTTGAATGATAGATCTAACAAAGGC
B2: cMAC BL9: shDNA construct in pLKO.1 lentiviral vector, target sequence caggaatgtcctccaacca (SEQ ID NO: 126) (nucleic acid)
sense: CCGGCAGGAATGTCCTCCAACCATTCAAGAGATGGTTGGAGGACATTCCTGTTTTT
antisense: AATTAAAAACAGGAATGTCCTCCAACCATCTCTTGAATGGTTGGAGGACATTCCTG
B3: CD29 shDNA construct: negative control shDNA construct targeting CD29, target sequence ggtagaaagtcgggacaaa (SEQ ID NO: 132) (nucleic acid)
sense: CCGGGGTAGAAAGTCGGGACAAATTCAAGAGATTTGTCCCGACTTTCTACCTTTTT
antisense: AATTAAAAAGGTAGAAAGTCGGGACAAATCTCTTGAATTTGTCCCGACTTTCTACC
B4: cMAC BL7: shDNA construct in pLKO.1 lentiviral vector, target sequence ccgggtttccctattccaa (SEQ ID NO: 120) (nucleic acid)
sense: CCGGCCGGGTTTCCCTATTCCAATTCAAGAGATTGGAATAGGGAAACCCGGTTTTT
antisense: AATTAAAAACCGGGTTTCCCTATTCCAATCTCTTGAATTGGAATAGGGAAACCCGG
B5: cMAC MB4: shDNA construct in pLKO.1 lentiviral vector, target sequence ccttgggcuggcactcttatt (SEQ ID NO: 129) (nucleic acid)
sense: CCGGCCTTGGGCUGGCACTCTTATTCAAGAGATAAGAGTGCCAGCCCAAGGTTTTT
antisense: AATTAAAAACCTTGGGCTGGCACTCTTATCTCTTGAATAAGAGTGCCAGCCCAAGG
B6: cMAC BL5: shDNA construct in pLKO.1 lentiviral vector, target sequence gatttaagcctccctaaga (SEQ ID NO: 114) (nucleic acid)
sense: CCGGGATTTAAGCCTCCCTAAGATTCAAGAGATCTTAGGGAGGCTTAAATCTTTTT
antisense: AATTAAAAAGATTTAAGCCTCCCTAAGATCTCTTGAATCTTAGGGAGGCTTAAATC
B7: cMAC BL8: shDNA construct in pLKO.1 lentiviral vector, target sequence gtcaggtgccacatgagaa (SEQ ID NO: 123) (nucleic acid)
sense: CCGGGTCAGGTGCCACATGAGAATTCAAGAGATTCTCATGTGGCACCTGACTTTTT
antisense: AATTAAAAAGTCAGGTGCCACATGAGAATCTCTTGAATTCTCATGTGGCACCTGAC
B8: cMAC BL6: shDNA construct in pLKO.1 lentiviral vector, target sequence actagaatgttgacctcga (SEQ ID NO: 117) (nucleic acid)
sense: CCGGACTAGAATGTTGACCTCGATTCAAGAGATCGAGGTCAACATTCTAGTTTTTT
antisense: AATTAAAAAACTAGAATGTTGACCTCGATCTCTTGAATCGAGGTCAACATTCTAGT
B9: cMAC BL4: shDNA construct in pLKO.1 lentiviral vector, target sequence ggttatctgttgcccaaga (SEQ ID NO: 111) (nucleic acid)
sense: CCGGGGTTATCTGTTGCCCAAGATTCAAGAGATCTTGGGCAACAGATAACCTTTTT
antisense: AATTAAAAAGGTTATCTGTTGCCCAAGATCTCTTGAATCTTGGGCAACAGATAACC
B10: cMAC BL3: shDNA construct in pLKO.1 lentiviral vector, target sequence catctttgttggcctacga (SEQ ID NO: 108) (nucleic acid)
sense: CCGGCATCTTTGTTGGCCTACGATTCAAGAGATCGTAGGCCAACAAAGATGTTTTT
antisense: AATTAAAAACATCTTTGTTGGCCTACGATCTCTTGAATCGTAGGCCAACAAAGATG

Experiments:
Assay type in all cases: cell-based
[1] = test system: cMAC mediated translocation of TORC1-eGFP; experiment: TORC1-eGFP translocation in HeLa:TORC1-eGFP cells transduced with human cMAC; conditions: EGTA in the medium; reversed by excess calcium (data not shown)
[2] = test system: NFAT-1; experiment: NFAT-1 translocation in Jurkat cells; conditions: PMA alone
Method: (§1) Fixing and staining Jurkat cells, NFAT translocation assay: Following treatment Jurkat cells were attached to 96 well plates using the Becton Dickinson Cell-Tak cell adhesive. The suspension cells were centrifuged (800×G) for 5 min onto precoated plates (as per manufacturer's instruction). The attached cells were permeabilized in 3.7% formaldehyde, 0.5% Triton X100 and washed twice with wash buffer (0.5% Triton X100 in PBS) and blocked with 2% BSA, 0.1% Triton X100 in PBS. The cells were incubated in primary antibodies NFAT-1 (Cellomics K01-0011-1 diluted 1:100) and NFAT-2 (Affinity Bioreagents MA3-024 diluted 1:250) in blocking buffer for 1 hour at room temperature. Cells were washed twice with wash buffer and incubated with secondary goat anti-mouse IgG conjugated to Alexa Fluor 488 GαM (Cellomics K01-0011-1 reagents antibody diluted 1:2000, and Hoechst dye 1:2000) in blocking buffer. Cells were washed once with PBS and imaged. […]
(§2) The effect of cMAC on the nuclear translocation of the transcription factor NFAT and its dependence on calcineurin was also examined. […] While NFAT-1 and NFAT-2 were detected in the cytoplasm of control virus infected cells, both isoforms of NFAT were localized primarily in the nucleus in a large proportion of cMAC transduced cells. […]

[3] = test system: NFAT-2; experiment: NFAT-2 translocation in Jurkat cells; conditions: PMA alone
Method: as §1, §2

[4] = test system: IL-2; experiment: Jurkat T-cell activation, IL-2 protein (ELISA); conditions: Jurkat cells, PMA alone
Method: (§3) Transduction and sensitization of Jurkat cells: Jurkat cells were maintained in RPMI 1640 (GIBCO 21870-076) 10% FC1 Fetal clone1 (Hyclone), 1% Pen/Strep, 1% Glutamax1, 0.1% beta mercaptoethanol. Prior to transduction the cells were switched to transduction media which contains: RPMI 1640 (above) fortified with 2.25 g glucose 1% antibiotic/antimycotic, 1% 1M Hepes (Gibco), 1% 100 mM sodium pyruvate, 10 ml 7.5% Sodium Bicarbonate 10% Fetal Clone serum 1. Cells were seeded 5×104 in transduction media combined with virus (volume in legend) and 4 ug/ml polybrene final concentration and centrifuged at ˜800×g for 3 hrs. For activation of ICOS and IL-2 expression experiments cells were transduced with 50 μl of retroviral supernatant (QL-GW-Final-Kan) and 48 hours post transduction the media was fortified with PMA (phorbol 12-myristate 13-acetate) 10 ng/ml and 24 hours after addition the cells or media were removed for ICOS or IL-2 measurements. […]
(§4) Analysis of ICOS surface marker and IL-2 protein expression: 1.5 uL of ICOS-PE (BD-Parmingen 557802) was combined with ˜1×10^6 Jurkat cells and incubated on ice for 30 min. Cells were centrifuged ˜500×g 5 min and washed 2×PBS and the mean channel flourescence determined using flow cytometry (BD FACSCaliber). IL-2 levels were measured using the QuantiGlo IL-2 Elisa kit (R&D Systems).
(§5) We assessed the role of TRPV6 and cMAC in a T-cell activation screen. […]

[5] = test system: ICOS; experiment: Jurkat T-cell activation, ICOS surface marker expression; conditions: Jurkat cells, PMA alone
Method: as §3, §4, §5

[6] = test system: IL-2; experiment: IL-2 production of TCR/CD28 activated Jurkat T-cells after viral shDNA transduction; conditions: TCR/CD28 activated 6 days post transduction; for Average IL-2 % inhibition: pLKO.1 shDNA, puromycin selected, IL-2 normalized to viable cells
Method: as §4
Jurkat cell activation for shDNA inhibition studies: To assess shDNA efficacy, Jurkat cells (15000) were transduced with 10 μL LKO virus as described and 24 hours post transduction the media was fortified with puromycin (see below). Six days post transduction half the cells were activated with antibodies targeting TCR and CD28 receptors bound to a 96 well plate surface and incubated overnight and the media was collected for IL-2 determination. The remaining cells were used to determine the fraction of viable cells in each well using the Cell Titer-Glo assay (see below).
The activation plates were prepared by coating goat anti-mouse IgG, Fcγ fragment specific antibody (Jackson ImmunoResearch Laboratories) 55 μl per well at a final concentration of 10 μg/ml in PBS. The plates were incubated 3 hours at room temperature. Excess IgG was removed and plates were blotted. Plates were blocked with 300 μL 2% BSA/PBS (BSA, Fraction V lyophilizate, Roche) and incubated for 2 hours at room temperature. The plates were washed 3 times with PBS and stimulating antibodies anti-TCR 0.01 ug/ml (BD Biosciences 347770 clone WT31) and anti-CD28 0.3 ug/ml (BD Pharmingen 555725) in 2% BSA/PBS final volume 50 μL/well. Plates were incubated overnight and washed 3 times with PBS prior to addition of cells for activation.
(§6) Puromycin selection of shDNA transduced Jurkat cells and normalization for cell survival: The LKO viral vector used in this study contains a puromycin selection marker. Jurkat cells infected with shDNA constructs (LKO.1) were put under puromycin selection 24 hrs post infection by addition of puromycin (2 μg/ml) and maintained for the duration of the experiment (6 days post infection, 3 days for mRNA quantitation). To account for differences in cell number after puromycin selection (possibly due to variations in viral titer), we adopted a cellular ATP assay which is proportional to cell number (Cell Titer-Glo Luminescent Assay Kit, Promega). The assay was performed as per the manufacturer's instruction. A standard curve was generated for each cell type to determine linearity for the assay. The IL-2 concentrations were normalized to cell number by dividing the calculated IL-2 concentration by the rLU values for the cell titer-glo assay, which is equivalent to IL-2 expression/cell number. The mRNA expression levels were determined 3 days post infection.
To assess whether cMAC was essential for T-cell activation, we designed several shDNA constructs targeting cMAC. In these experiments Jurkat T-cells were transduced with viral constructs targeting cMAC or another unrelated gene. 6 days post transduction, the cells were activated with TCR/CD28 antibodies and the level of cMAC mRNA and IL-2 secreted into the media was measured. […] FIG. 10.

[7] = test system: cMAC mRNA; experiment: cMAC mRNA knockdown in shDNA transduced Jurkat cells; conditions: for Average cMAC mRNA % Inhib.: 3 days post infection (2 days post puromycin selection)
Method: as §6
Determination of mRNA knockdown for cMAC: Jurkat mRNA expression levels were determined 3 days post infection (2 days post puromycin selection).
To determine the specificity of the shDNA construct, the reduction of cMAC mRNA was measured for each construct (Table 8) and compared to the inhibition of IL-2 observed. The pGL3-Luc and CD29 shDNA constructs served as negative controls. […] In those instances it may be that the shDNA is causing decreases in the expression of cMAC protein through microRNA effects. Thus, it appears that with the exception of 2 constructs (BL6 and BL8) the phenotypically active IL-2 constructs correlate with reduced cMAC mRNA levels.

[8] = test system: CD29 mRNA; experiment: CD29 mRNA knockdown by shDNA construct

Molecule	Average IL-2 % inhibition [6]	Average cMAC mRNA % Inhib. [7]	further results
O=C(O)CN(CCOCCOCCN(CC(=O)O)CC(=O)O)CC(=O)O [EGTA]	–	–	effect on cMAC induced nuclear TORC1 translocation [1]: blocked
CCCCCCCCCCCCCC(=O)O[C@@H]1[C@@H](C)[C@@]2(O)[C@@H](C=C(CO)C[C@]3(O)C(=O)C(C)=C[C@@H]23)[C@@H]2C(C)(C)[C@]12OC(C)=O [PMA, phorbol 12-myristate 13-acetate]	–	–	effect on NFAT-1 translocation [2]: no effect; effect on NFAT-2 translocation [3]: no effect; upregulation of IL-2 [4]: did not upregulate; upregulation of ICOS expression levels [5]: did not upregulate
B1	75.5%	72.6%	–
B2	37.8%	54.8%	–
B3	–	–	effect on cMAC message [7]: no effect; reduction of CD29 mRNA [8]: potently reduced CD29 mRNA
B4	40.8%	66.4%	–
B5	78.9%	65.9%	–
B6	72.2%	67.0%	–
B7	8.03%	70.1%	IL-2 reduction [6]: without any IL-2 reduction; Average cMAC mRNA % Inhib. ([7]; listed as BL8): 70%
B8	−9.34%	35.8%	IL-2 reduction [6]: without any IL-2 reduction; Average cMAC mRNA % Inhib. ([7]; listed as BL6): 36%
B9	65.7%	56.2%	–
B10	52.1%	30.1%	–
